Substrate: O=P(O)(O)O
Test: cells, lysate or membranes
Details: labelled compound, whole yeast cells, 5 min, 30 °C, glucose-energized, Pi 50-2000 µM, proton symport, pH of Km assay not stated

B1: GmPT1 (Glycine max) (protein)
chain: MAGGQLGVLNALDVAKTQWYHFTAIVIAGMGFFTDAYDLFCISLVTKLLGRLYYTDIRNPKPGVLPPNVQAAVTGVALCGTLAGQLFFGWLGDKLGRKRVYGLTLMLMVLCSIASGLSFGDTPKGVMATLCFFRFWLDFGIGGDYPLSATIMSEYANKKTRGSFIAAVFAMQGFGIMAGGIVALIVSSAYDHKYDLPSYKDNPAGSKVDSLDYVWRIILMFGAVPAALTYYWRMKMPETARYTALVAKNAKQAASDMSKVLQVEVEAEEDKLQHMVESENQKYGLFSKEFAKRHGLHLVGTTVTWFLLDIAFYSQNLFQKDIFTAIGWIPPAQDMNAIHEVYRIARAQTLIALCSTVPGYWFTVAFIDIIGRFAIQLMGFFFMTVFMFALAIPYNHWKNHNNIGFVVMYSFTFFFSNFGPNATTFVVPAEIFPARLRSTCHGISAAAGKAGAIVGAFGFLYAAQSTNPNKVDHGYPTGIGVKNSLIVLGVINFFGMVFTLLVPESKGKSLEELSGENEDDGAEAIEMAGSARTVPV
Km: 6.65 mM

B2: GmPT2 (Glycine max) (protein)
chain: MAGGQLGVLNALDVAKTQWYHFTAIVIAGMGFFTDAYDLFCISLVTKLLGRLYYTDITNPKPGVLPPNVQAAVTGVALCGTLAGQLFFGWLGDKLGRKRVYGLTLMLMVVCSVASGLSFGDTPKGVMATLCFFRFWLGFGIGGDYPLSATIMSEYANKKTRGAFIAAVFAMQGFGILAGGIVALIVSSAYDHKYDLPSYKDNPAGSKVDSLDYVWRIILMFGAVPAGLTYYWRMKMPETARYTALVAKNAKQAASDMSKVLQVEVEAEEDKLQHMVESEHQKYGLFSKEFAKRHGLHLVGTTVTWFLLDIAFYSQNLFQKDIFSAIGWIPPAQDMNAIHEVYRIARAQTLIALCSTVPGYWFTVAFIDIMGRFAIQLMGFFFMTVFMFALAIPYNHWKNHNNIGFVVMYSFTFFFSNFGPNATTFVVPAEIFPARLRSTCHGISAAAGKAGAIVGAFGFLYAAQSTNPDKVDHGYPTGIGVKNSLIVLGVINFFGMVFTLLVPESKGKSLEELSGENEDDGAEAIEMAGSARTVPV
Km: 6.63 mM

From article PMC3115949
